In data set [1] the target is biotinylated phosphorylated cyclin E degron peptide. Briefly: ALPHAscreen, 1536-well primary screen, n=518 plates. (Bead proximity is the source of the signal in Alpha formats.)
For data set [2] the target is unchanged. Briefly: ALPHAscreen, 384-well; His-FBW7 on Ni-chelate acceptor beads, biotin-peptide on streptavidin donor beads.
Data set [3] shares this target. Briefly: ALPHAscreen, 384-well LOPAC screen; 25 nM FBW7 and 25 nM cyclin E phosphopeptide.
Data set [4] has as its system cyclin E (substrate of the in vitro ubiquitylation assay).

The values below come from patent US20210041439A1.

As for “wild-type F-box/WD repeat-containing protein 7 (FBW7), recombinant dimeric Skp1-FBW7 complex (from UniProt P63208 1-163) (enzyme)”, the signal-to-background (S:B) (Wt-FBW7+pCycE-peptide high control versus Wt-FBW7+unphosphorylated CycE peptide low control) in data set [1] was 69.3. In addition, in data set [2], the fold ALPHA signal, phosphorylated versus unphosphorylated cyclin E degron peptide is 100 fold. The S:B ratio (wt-FBW7 high control versus mutant FBW7 low control, both with cyclin E phosphopeptide) in data set [3] came out at 14.6.

With “mutant FBW7 R505L (FBW7^ARG), recombinant dimeric Skp1-FBW7 complex”, the “reconstituted in vitro Cyclin E polyubiquitylation assay” value in data set [4] was “FBW7^ARG was inactive”.

Regarding “wild-type F-box/WD repeat-containing protein 7 (FBW7), recombinant dimeric Skp1-FBW7 complex”, the “reconstituted in vitro Cyclin E polyubiquitylation assay” value in data set [4] is “wt-FBW7 was highly active”.
